From patent US10907134B2, “Mutated genes for the catalytic protein of oplophorus luciferase and use thereof” (JNC CORPORATION, priority 2013, dated 2021) come the findings set out here.

The nature of test [1]: Substrate specificities of KAZ mutants (ZZ-fused, crude enzyme), bis-CTZ. The class given is biochemical. To be noted: 1 μg substrate; for Relative Luminescence Activity bis-CTZ Int.: integrated for 60 seconds; for Relative Luminescence Activity bis-CTZ Imax: maximum intensity of luminescence. The method, then:
(§1) The coelenterazine analogues used for substrate specificity studies were synthesized by the methods described in publications. Specifically, bis-coelenterazine was synthesized by the method described in Nakamura et al. (1997) Tetrahedron Lett. 38: 6405-6406; furimazine by the method described in Hall et al. (2012) ACS Chem. Biol. […]; and, 6h-coelenterazine, f-coelenterazine and 6h-f-coelenterazine by the methods described in Inouye et al (2013) Biochem. Biophys. Res. Commun. 437: 23-28.
(§2) DTT was added to the crude enzyme solutions obtained in EXAMPLE 17 at a final concentration of 1 mM and the mixtures were allowed to stand in an ice water for more than 5 hours in the same manner as Example 8. A luminescence reaction was started by the addition of 1 μL each of the crude enzyme solutions to 100 μL of TE containing 1 μg of coelenterazine (manufactured by JNC Corp.) or its analogues. The luminescence activities were determined using a luminometer (manufactured by Atto Inc.: AB2200) for 60 seconds, and the maximum intensity of luminescence (Imax) was shown as relative luminescence activity.

Test [2] in a line: Substrate specificities of KAZ mutants (ZZ-fused, crude enzyme), CTZ. It counts as biochemical. The following applies: for Relative Luminescence Activity CTZ Int. / Relative Luminescence Activity CTZ Imax: ZZ-fused crude enzyme, 1 μg substrate; for Relative Luminescence Activity CTZ Int.: integrated for 60 seconds; for Relative Luminescence Activity CTZ Imax: maximum intensity of luminescence; for Substrate specificity: coelenterazine versus its analogues. Here is the method:
as §1, §2

Test [3] in a line: Substrate specificities of KAZ mutants (ZZ-fused, crude enzyme), f-CTZ. The class given is biochemical. To be noted: 1 μg substrate; for Relative Luminescence Activity f-CTZ Int.: integrated for 60 seconds; for Relative Luminescence Activity f-CTZ Imax: maximum intensity of luminescence. The method, then:
as §1, §2

Test [4] is described as follows: Substrate specificities of KAZ mutants (ZZ-fused, crude enzyme), h-CTZ. The class given is biochemical. To be noted: 1 μg substrate; for Relative Luminescence Activity h-CTZ Int.: integrated for 60 seconds; for Relative Luminescence Activity h-CTZ Imax: maximum intensity of luminescence. The method, then: as §1, §2
The subject of another test is CHO-K1 cells. Kind of test: Luminescence activity of KAZ mutants expressed in animal culture cells with signal peptide of Gaussia luciferase for secretion. To be noted: pcDNA3-GLsp- vectors; for Relative Luminescence Activity (%, Imax) Cell Extracts / Relative Luminescence Activity (%, Imax) Culture Medium: Table 11, CHO-K1, coelenterazine. The class given is cell-based, Chinese hamster. The procedure, abridged:
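CHO-K1 cells were transfected with the KAZ mutant plasmid plus an internal standard vector. After 48 h, culture medium and sonicated cell extracts were collected. 5 μL of each was added to 0.5 μg coelenterazine in 30 mM Tris-HCl pH 7.6, 10 mM EDTA, and luminescence was read for 60 s, with maximum intensity (Imax) expressed as a percentage.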

Test [5] in a line: Luminescence activity of ZZ-fused KAZ mutants in crude enzyme solutions. To be noted: for Relative Luminescence Activity (Imax): ZZ-fused (pCold-ZZ-P-), 1 mM DTT; for Luminescence activity, fold higher than dnKAZ / Luminescence activity, fold higher than wild KAZ: ZZ-fused, coelenterazine (Table 9). The class given is biochemical. The procedure, abridged: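 E. coli BL21 crude extracts held with 1 mM DTT (final) on ice over 5 hours. Reaction started with 1 μL extract in 100 μL TE containing 1 μg coelenterazine; luminescence read for 60 seconds, maximum intensity (Imax) reported as relative activity.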

Test [6] in a line: Substrate specificities of KAZ mutants (ZZ-fused, crude enzyme), 6h-CTZ. The class given is biochemical. The following applies: for Relative Luminescence Activity 6h-CTZ Int. / Relative Luminescence Activity 6h-CTZ Imax: 1 μg substrate; for Relative Luminescence Activity 6h-CTZ Int.: integrated for 60 seconds; for Relative Luminescence Activity 6h-CTZ Imax: maximum intensity of luminescence. The method, then:
as §1, §2

[7] abbreviates: Table 9, crude enzyme solution, coelenterazine.

B1: KAZ-A54I-Y138I: KAZ mutant with two amino acid substitutions A54I and Y138I, SEQ ID NO: 14 (protein)
chain: FTLADFVGDWQQTAGYNQDQVLEQGGLSSLFQALGVSVTPIQKVVLSGENGLKIDIHVIIPYEGLSGFQMGLIEMIFKVVYPVDDHHFKIILHYGTLVIDGVTPNMIDYFGRPYPGIAVFDGKQITVTGTLWNGNKIIDERLINPDGSLLFRVTINGVTGWRLCENILA
Turning to B1, in test [1], the “Relative Luminescence Activity bis-CTZ Int.” value was 9.2 and the “Relative Luminescence Activity bis-CTZ Imax” value was 9.5. In test [2], the “Relative Luminescence Activity CTZ Int.” value amounted to 19.1, the “Relative Luminescence Activity CTZ Imax” value was found to be 23.1 and the “Substrate specificity” value is “high substrate specificity for coelenterazine”. Also, in test [3], the “Relative Luminescence Activity f-CTZ Int.” value came out at 9.2 and the “Relative Luminescence Activity f-CTZ Imax” value came out at 19.7. Besides, in test [4], the “Relative Luminescence Activity h-CTZ Int.” value worked out at 12.9 and the “Relative Luminescence Activity h-CTZ Imax” value amounted to 24.2. Also, in the test with CHO-K1 cells, the “Relative Luminescence Activity (%, Imax) Cell Extracts” value was 16.0% and the “Relative Luminescence Activity (%, Imax) Culture Medium” value is 0.03%. In test [5] (setting [7]), the “Relative Luminescence Activity (Imax)” value came to 23.1. In test [5] (crude enzyme solution), the “Luminescence activity, fold higher than dnKAZ” value is 2.5 fold and the “Luminescence activity, fold higher than wild KAZ” value came out at 23 fold. In addition, in test [6], the “Relative Luminescence Activity 6h-CTZ Int.” value amounted to 6.1 and the “Relative Luminescence Activity 6h-CTZ Imax” value was determined as 5.8.

B2: KAZ-V44I-A54I-Y138I: KAZ mutant with three amino acid substitutions V44I, A54I and Y138I, SEQ ID NO: 16 (protein)
chain: FTLADFVGDWQQTAGYNQDQVLEQGGLSSLFQALGVSVTPIQKIVLSGENGLKIDIHVIIPYEGLSGFQMGLIEMIFKVVYPVDDHHFKIILHYGTLVIDGVTPNMIDYFGRPYPGIAVFDGKQITVTGTLWNGNKIIDERLINPDGSLLFRVTINGVTGWRLCENILA
For B2, in test [1], the “Relative Luminescence Activity bis-CTZ Int.” value was found to be 11.9 and the “Relative Luminescence Activity bis-CTZ Imax” value amounted to 13.3. Also, in test [2], the “Relative Luminescence Activity CTZ Int.” value worked out at 66.7, the “Relative Luminescence Activity CTZ Imax” value stood at 66.7 and the “Substrate specificity” value is given as “high substrate specificity for coelenterazine”. Further, in test [3], the “Relative Luminescence Activity f-CTZ Int.” value is on record as 9.5 and the “Relative Luminescence Activity f-CTZ Imax” value is 43.8. For the same molecule, in test [4], the “Relative Luminescence Activity h-CTZ Int.” value is listed as 33.2 and the “Relative Luminescence Activity h-CTZ Imax” value is recorded as 83.1. In addition, in the test with CHO-K1 cells, the “Relative Luminescence Activity (%, Imax) Cell Extracts” value is recorded as 16.2% and the “Relative Luminescence Activity (%, Imax) Culture Medium” value worked out at 1.7%. Also, the “Relative Luminescence Activity (Imax)” value in test [5] (setting [7]) came to 66.7. For the same molecule, in test [5] (crude enzyme solution), the “Luminescence activity, fold higher than dnKAZ” value was found to be 7.1 fold and the “Luminescence activity, fold higher than wild KAZ” value was 67 fold. Further, in test [6], the “Luminescence activity compared with dnKAZ with 6h-coelenterazine” value is “higher luminescence activity than dnKAZ”, the “Relative Luminescence Activity 6h-CTZ Int.” value is recorded as 11.1 and the “Relative Luminescence Activity 6h-CTZ Imax” value stood at 12.9.

B3: KAZ: wild 19 kDa catalytic protein of Oplophorus luciferase (19kOLase), amino acid sequence SEQ ID NO: 2 (protein, listed as Oplophorus gracilirostris)
chain: FTLADFVGDWQQTAGYNQDQVLEQGGLSSLFQALGVSVTPIQKVVLSGENGLKADIHVIIPYEGLSGFQMGLIEMIFKVVYPVDDHHFKIILHYGTLVIDGVTPNMIDYFGRPYPGIAVFDGKQITVTGTLWNGNKIYDERLINPDGSLLFRVTINGVTGWRLCENILA
On to B3, for which, in test [1], the “Relative Luminescence Activity bis-CTZ Int.” value came to 0.9 and the “Relative Luminescence Activity bis-CTZ Imax” value worked out at 0.6. In test [2], the “Relative Luminescence Activity CTZ Int.” value worked out at 1.0 and the “Relative Luminescence Activity CTZ Imax” value worked out at 1.0. Also, in test [3], the “Relative Luminescence Activity f-CTZ Int.” value is reported as 0.8 and the “Relative Luminescence Activity f-CTZ Imax” value was 0.9. For the same molecule, in test [4], the “Relative Luminescence Activity h-CTZ Int.” value is given as 0.7 and the “Relative Luminescence Activity h-CTZ Imax” value is given as 1.1. Moreover, the “Relative Luminescence Activity (Imax) (%) Cell Extracts” value with CHO-K1 cells (Table 5, CHO-K1, 48 hours, 5 μL cell extracts, 0.5 μg coelenterazine) came out at 0.1%. In addition, the “Relative Luminescence Activity (Imax) (%) Culture Medium” value in the test with CHO-K1 cells (Table 5, CHO-K1, 48 hours, 5 μL culture medium, 0.5 μg coelenterazine) is recorded as “less than 0.01%”. Besides, in the test on CHO-K1 cells, the “Relative Luminescence Activity (%, Imax) Cell Extracts” value is listed as 0.3% and the “Relative Luminescence Activity (%, Imax) Culture Medium” value was “less than 0.01%”. Also, the “Relative Luminescence Activity (Imax)” value in test [5] (Table 4, 1 μL crude enzyme solution, 1 μg coelenterazine) was found to be 1.0. Further, the “Relative Luminescence Activity (Imax)” value in test [5] (setting [7]) was determined as 1.0. Further, in test [6], the “Relative Luminescence Activity 6h-CTZ Int.” value came out at 0.2 and the “Relative Luminescence Activity 6h-CTZ Imax” value turned out to be 0.1.
